Measured values: publication PMC3229523, “Identification of Lactoferricin B Intracellular Targets Using an Escherichia coli Proteome Chip” (PLoS ONE, 2011)
Ends that are not written are not given here.

Experiments:
Assay in all cases: fluorescence polarisation; 100 nM DyLight 549-labeled LfcinB as tracer; two-fold serial dilution of protein from 0.4 µM to 0.025 µM in PBS, 0.005% BSA, 0.01% Triton X-100; room temperature, 1 h; compared with BSA
Conditions in all cases: both partners purified
[1] = biological target: T1, ribonucleoside-diphosphate reductase 2, β subunit (E. coli K-12, UniProt P37146 1-319)
T1 construct: NrdF, ribonucleoside-diphosphate reductase 2, β subunit, E. coli K-12; no measurement of the oligomer here; also called NrdF

HyaF = biological target: T2, HyaF (E. coli K-12, UniProt P19932 1-285)
T2 construct: HyaF, E. coli K-12
T2 sequence (looked up): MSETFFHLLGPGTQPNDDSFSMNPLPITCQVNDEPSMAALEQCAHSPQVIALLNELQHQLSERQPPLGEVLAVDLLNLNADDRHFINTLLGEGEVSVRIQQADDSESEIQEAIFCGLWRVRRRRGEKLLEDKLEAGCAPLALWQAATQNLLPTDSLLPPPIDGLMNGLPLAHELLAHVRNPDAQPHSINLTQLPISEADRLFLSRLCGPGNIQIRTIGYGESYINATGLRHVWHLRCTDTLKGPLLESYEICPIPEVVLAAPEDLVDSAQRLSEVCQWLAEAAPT

MetL = biological target: T3, MetL (E. coli K-12, UniProt P00562 1-810)
T3 construct: MetL, E. coli K-12
T3 sequence (looked up): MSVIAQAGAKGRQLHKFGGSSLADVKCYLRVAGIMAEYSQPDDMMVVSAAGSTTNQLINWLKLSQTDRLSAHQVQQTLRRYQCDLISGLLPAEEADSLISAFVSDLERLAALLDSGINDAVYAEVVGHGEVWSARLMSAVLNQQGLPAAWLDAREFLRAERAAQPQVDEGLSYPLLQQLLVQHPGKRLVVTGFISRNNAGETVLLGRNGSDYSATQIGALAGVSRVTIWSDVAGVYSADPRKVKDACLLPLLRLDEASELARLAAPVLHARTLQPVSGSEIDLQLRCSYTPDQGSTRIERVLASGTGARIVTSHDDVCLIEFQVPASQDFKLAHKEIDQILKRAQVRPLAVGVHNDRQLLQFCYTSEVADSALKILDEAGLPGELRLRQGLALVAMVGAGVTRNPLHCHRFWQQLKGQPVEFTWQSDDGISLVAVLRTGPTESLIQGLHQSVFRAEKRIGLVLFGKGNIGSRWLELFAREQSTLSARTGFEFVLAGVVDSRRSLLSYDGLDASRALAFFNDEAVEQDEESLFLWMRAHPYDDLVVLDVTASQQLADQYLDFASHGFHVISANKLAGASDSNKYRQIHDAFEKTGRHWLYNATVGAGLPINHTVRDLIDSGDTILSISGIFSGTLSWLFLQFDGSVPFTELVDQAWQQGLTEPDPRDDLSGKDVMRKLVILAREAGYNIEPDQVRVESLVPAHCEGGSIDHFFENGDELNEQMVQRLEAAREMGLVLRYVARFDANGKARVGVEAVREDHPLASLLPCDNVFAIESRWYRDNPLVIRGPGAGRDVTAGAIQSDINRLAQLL

adenylate cyclase CyaA = biological target: T4, adenylate cyclase CyaA (E. coli K-12, UniProt P00936 1-848)
T4 construct: CyaA, adenylate cyclase, E. coli K-12
T4 sequence (looked up): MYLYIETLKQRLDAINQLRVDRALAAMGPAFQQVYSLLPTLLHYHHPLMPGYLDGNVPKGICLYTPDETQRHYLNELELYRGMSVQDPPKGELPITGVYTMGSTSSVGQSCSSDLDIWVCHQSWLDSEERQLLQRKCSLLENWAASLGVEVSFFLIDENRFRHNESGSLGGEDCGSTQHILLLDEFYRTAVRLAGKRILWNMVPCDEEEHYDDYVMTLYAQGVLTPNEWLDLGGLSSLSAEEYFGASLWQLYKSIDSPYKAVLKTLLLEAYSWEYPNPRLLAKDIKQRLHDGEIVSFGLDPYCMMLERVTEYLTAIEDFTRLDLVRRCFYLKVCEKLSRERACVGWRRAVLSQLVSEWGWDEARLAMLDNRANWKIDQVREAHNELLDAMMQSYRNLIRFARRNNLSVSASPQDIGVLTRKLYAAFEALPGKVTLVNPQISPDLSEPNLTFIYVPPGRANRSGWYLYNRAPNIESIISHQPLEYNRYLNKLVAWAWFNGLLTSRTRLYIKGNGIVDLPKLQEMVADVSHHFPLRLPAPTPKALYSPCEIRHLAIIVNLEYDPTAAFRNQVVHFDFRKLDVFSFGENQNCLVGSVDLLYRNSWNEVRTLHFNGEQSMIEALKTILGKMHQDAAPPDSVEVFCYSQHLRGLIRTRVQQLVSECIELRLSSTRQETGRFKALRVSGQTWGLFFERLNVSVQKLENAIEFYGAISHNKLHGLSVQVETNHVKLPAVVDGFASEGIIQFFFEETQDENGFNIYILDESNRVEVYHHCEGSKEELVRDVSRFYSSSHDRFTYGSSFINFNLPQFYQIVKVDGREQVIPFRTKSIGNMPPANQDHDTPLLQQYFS

Measured: binding result

T1 sequence (P37146 whole entry): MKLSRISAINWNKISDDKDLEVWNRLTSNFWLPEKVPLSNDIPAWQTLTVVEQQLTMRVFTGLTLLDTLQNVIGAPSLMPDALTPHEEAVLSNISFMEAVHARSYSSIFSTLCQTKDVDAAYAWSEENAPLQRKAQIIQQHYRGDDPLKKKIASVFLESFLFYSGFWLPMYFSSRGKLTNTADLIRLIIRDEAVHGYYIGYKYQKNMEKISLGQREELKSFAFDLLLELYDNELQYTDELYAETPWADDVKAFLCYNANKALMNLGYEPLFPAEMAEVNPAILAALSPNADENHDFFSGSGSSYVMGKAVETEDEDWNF

B1: DyLight 549-labeled Lactoferricin B (peptide, UniProt P24627 36-60, looked up)
peptide: FKCRRWQWRMKKLGAPSITCVRRAF
modifications: ends and bridges not checked; also: DyLight 549 label, sites not given here
notes: lactoferricin B (LfcinB), cationic antimicrobial peptide of 25 amino acids; also called fluorescence-labeled LfcinB; LfcinB; source: bought: Kelowna Inc; labelled with DyLight 549-NHS ester, desalted
binds: all assays above
